Our source for the fold S1:S2 ratio against PV^D614 values is article PMC7693302.

In this assay the target is S2 domain of SARS-CoV-2 S protein (from S protein with FLAG at both N- and C-termini) (SARS-CoV-2). Description: co-sedimentation.

Regarding “S1 domain of S^G614 (from S protein with FLAG at both N- and C-termini) (domain or fragment)”, the fold S1:S2 ratio against PV^D614 was 3.5 fold.
